Experiments:
Test in all cases: SPOT array
[1] = target: T1, Rvs167 SH3 (RV167_YEAST), P39743
T1 chain: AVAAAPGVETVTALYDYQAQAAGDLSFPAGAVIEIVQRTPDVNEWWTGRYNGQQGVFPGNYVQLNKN

[2] = target: T2, Yfr024 SH3 (LSB3_YEAST), P43603
T2 chain: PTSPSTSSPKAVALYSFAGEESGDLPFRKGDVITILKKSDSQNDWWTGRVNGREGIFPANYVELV

[3] = target: T3, Yhr016c SH3 (YSC84_YEAST), P32793
T3 chain: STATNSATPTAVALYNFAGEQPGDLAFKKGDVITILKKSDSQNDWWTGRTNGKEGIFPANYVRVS

[4] = target: T4, Boi2 SH3 (BOI2_YEAST), P39969
T4 chain: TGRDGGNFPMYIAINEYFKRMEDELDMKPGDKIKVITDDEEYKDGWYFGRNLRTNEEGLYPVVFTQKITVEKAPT

[5] = target: T5, Boi1 SH3 (BOI1_YEAST), P38041
T5 chain: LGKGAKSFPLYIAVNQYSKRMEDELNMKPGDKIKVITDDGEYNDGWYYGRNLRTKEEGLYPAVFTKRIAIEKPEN

[6] = target: Sho1 SH3 (SHO1_YEAST), P40073
[7] = target: T6, Myo5 SH3 (MYO5_YEAST), Q04439
T6 chain: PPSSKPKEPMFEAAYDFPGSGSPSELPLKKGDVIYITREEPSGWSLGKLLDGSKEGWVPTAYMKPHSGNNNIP

Sequence of Sho1 SH3 (SHO1_YEAST), P40073 (P40073 295-366): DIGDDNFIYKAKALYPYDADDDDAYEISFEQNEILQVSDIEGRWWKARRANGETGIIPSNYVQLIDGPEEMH

IGKSKSAPPIPEDT [YJL095W 1392-1405]
normalised SPOT signal, Boehringer light units (BLU); mean over the file's lines of this peptide [1]: 26 | normalised SPOT signal, Boehringer light units (BLU); mean over the file's lines of this peptide [2]: 42.9 | normalised SPOT signal, Boehringer light units (BLU); mean over the file's lines of this peptide [3]: 12.5 | normalised SPOT signal, Boehringer light units (BLU); mean over the file's lines of this peptide [4]: 58.9 | normalised SPOT signal, Boehringer light units (BLU); mean over the file's lines of this peptide [5]: 74.3 | normalised SPOT signal, Boehringer light units (BLU); mean over the file's lines of this peptide [6]: 6.7 | normalised SPOT signal, Boehringer light units (BLU); mean over the file's lines of this peptide [7]: 244

IKMSRSPPRPPSLK [YDR243C 237-250]
normalised SPOT signal, Boehringer light units (BLU); mean over the file's lines of this peptide [1]: 1150 | normalised SPOT signal, Boehringer light units (BLU); mean over the file's lines of this peptide [2]: 8250 | normalised SPOT signal, Boehringer light units (BLU); mean over the file's lines of this peptide [3]: 1780 | normalised SPOT signal, Boehringer light units (BLU); mean over the file's lines of this peptide [4]: 416 | normalised SPOT signal, Boehringer light units (BLU); mean over the file's lines of this peptide [5]: 1330 | normalised SPOT signal, Boehringer light units (BLU); mean over the file's lines of this peptide [6]: 223 | normalised SPOT signal, Boehringer light units (BLU); mean over the file's lines of this peptide [7]: 17700

IFVTRYLPYFPIMY [YBL066C 354-367]
normalised SPOT signal, Boehringer light units (BLU); mean over the file's lines of this peptide [1]: 373 | normalised SPOT signal, Boehringer light units (BLU); mean over the file's lines of this peptide [2]: 674 | normalised SPOT signal, Boehringer light units (BLU); mean over the file's lines of this peptide [3]: 180 | normalised SPOT signal, Boehringer light units (BLU); mean over the file's lines of this peptide [4]: 1150 | normalised SPOT signal, Boehringer light units (BLU); mean over the file's lines of this peptide [5]: 60.7 | normalised SPOT signal, Boehringer light units (BLU); mean over the file's lines of this peptide [6]: 115 | normalised SPOT signal, Boehringer light units (BLU); mean over the file's lines of this peptide [7]: 157

ILFERILPILPVES [YOL081W 29-42]
normalised SPOT signal, Boehringer light units (BLU); mean over the file's lines of this peptide [1]: 457 | normalised SPOT signal, Boehringer light units (BLU); mean over the file's lines of this peptide [2]: 1840 | normalised SPOT signal, Boehringer light units (BLU); mean over the file's lines of this peptide [3]: 1500 | normalised SPOT signal, Boehringer light units (BLU); mean over the file's lines of this peptide [4]: 16.2 | normalised SPOT signal, Boehringer light units (BLU); mean over the file's lines of this peptide [5]: 152 | normalised SPOT signal, Boehringer light units (BLU); mean over the file's lines of this peptide [6]: 5680 | normalised SPOT signal, Boehringer light units (BLU); mean over the file's lines of this peptide [7]: 340

IDIPRTNPHIPLYQ [YOR070C 339-352]
normalised SPOT signal, Boehringer light units (BLU); mean over the file's lines of this peptide [1]: 9.1 | normalised SPOT signal, Boehringer light units (BLU); mean over the file's lines of this peptide [2]: 34.3 | normalised SPOT signal, Boehringer light units (BLU); mean over the file's lines of this peptide [3]: 0 | normalised SPOT signal, Boehringer light units (BLU); mean over the file's lines of this peptide [4]: 3.3 | normalised SPOT signal, Boehringer light units (BLU); mean over the file's lines of this peptide [5]: 50.1 | normalised SPOT signal, Boehringer light units (BLU); mean over the file's lines of this peptide [6]: 40.3 | normalised SPOT signal, Boehringer light units (BLU); mean over the file's lines of this peptide [7]: 139

IAVTRSIPRGPDKN [YOR322C 264-277]
normalised SPOT signal, Boehringer light units (BLU); mean over the file's lines of this peptide [1]: 283 | normalised SPOT signal, Boehringer light units (BLU); mean over the file's lines of this peptide [2]: 555 | normalised SPOT signal, Boehringer light units (BLU); mean over the file's lines of this peptide [3]: 43.3 | normalised SPOT signal, Boehringer light units (BLU); mean over the file's lines of this peptide [4]: 34.5 | normalised SPOT signal, Boehringer light units (BLU); mean over the file's lines of this peptide [5]: 256 | normalised SPOT signal, Boehringer light units (BLU); mean over the file's lines of this peptide [6]: 65 | normalised SPOT signal, Boehringer light units (BLU); mean over the file's lines of this peptide [7]: 158

IKYFKKFPKDPLAM [YPR189W 306-319]
normalised SPOT signal, Boehringer light units (BLU); mean over the file's lines of this peptide [1]: 85.2 | normalised SPOT signal, Boehringer light units (BLU); mean over the file's lines of this peptide [2]: 304 | normalised SPOT signal, Boehringer light units (BLU); mean over the file's lines of this peptide [3]: 58.6 | normalised SPOT signal, Boehringer light units (BLU); mean over the file's lines of this peptide [4]: 9.4 | normalised SPOT signal, Boehringer light units (BLU); mean over the file's lines of this peptide [5]: 132 | normalised SPOT signal, Boehringer light units (BLU); mean over the file's lines of this peptide [6]: 276 | normalised SPOT signal, Boehringer light units (BLU); mean over the file's lines of this peptide [7]: 237

ILERKNIPRQPAIR [YDL034W 13-26]
normalised SPOT signal, Boehringer light units (BLU); mean over the file's lines of this peptide [1]: 138 | normalised SPOT signal, Boehringer light units (BLU); mean over the file's lines of this peptide [2]: 354 | normalised SPOT signal, Boehringer light units (BLU); mean over the file's lines of this peptide [3]: 35.3 | normalised SPOT signal, Boehringer light units (BLU); mean over the file's lines of this peptide [4]: 19.9 | normalised SPOT signal, Boehringer light units (BLU); mean over the file's lines of this peptide [5]: 1780 | normalised SPOT signal, Boehringer light units (BLU); mean over the file's lines of this peptide [6]: 99.1 | normalised SPOT signal, Boehringer light units (BLU); mean over the file's lines of this peptide [7]: 603

IESFRERPLEPPRK [YDR448W 138-151]
normalised SPOT signal, Boehringer light units (BLU); mean over the file's lines of this peptide [1]: 163 | normalised SPOT signal, Boehringer light units (BLU); mean over the file's lines of this peptide [2]: 2680 | normalised SPOT signal, Boehringer light units (BLU); mean over the file's lines of this peptide [3]: 88.1 | normalised SPOT signal, Boehringer light units (BLU); mean over the file's lines of this peptide [4]: 120 | normalised SPOT signal, Boehringer light units (BLU); mean over the file's lines of this peptide [5]: 46.7 | normalised SPOT signal, Boehringer light units (BLU); mean over the file's lines of this peptide [6]: 55.1 | normalised SPOT signal, Boehringer light units (BLU); mean over the file's lines of this peptide [7]: 98.7

ILAVKKNPQSPMYT [YER126C 197-210]
normalised SPOT signal, Boehringer light units (BLU); mean over the file's lines of this peptide [1]: 26.4 | normalised SPOT signal, Boehringer light units (BLU); mean over the file's lines of this peptide [2]: 69.6 | normalised SPOT signal, Boehringer light units (BLU); mean over the file's lines of this peptide [3]: 22.6 | normalised SPOT signal, Boehringer light units (BLU); mean over the file's lines of this peptide [4]: 26.2 | normalised SPOT signal, Boehringer light units (BLU); mean over the file's lines of this peptide [5]: 128 | normalised SPOT signal, Boehringer light units (BLU); mean over the file's lines of this peptide [6]: 25.9 | normalised SPOT signal, Boehringer light units (BLU); mean over the file's lines of this peptide [7]: 175

IAKLKRKPVVPRLK [YPR056W 317-330]
normalised SPOT signal, Boehringer light units (BLU); mean over the file's lines of this peptide [1]: 29.5 | normalised SPOT signal, Boehringer light units (BLU); mean over the file's lines of this peptide [2]: 489 | normalised SPOT signal, Boehringer light units (BLU); mean over the file's lines of this peptide [3]: 87.4 | normalised SPOT signal, Boehringer light units (BLU); mean over the file's lines of this peptide [4]: 39.8 | normalised SPOT signal, Boehringer light units (BLU); mean over the file's lines of this peptide [5]: 136 | normalised SPOT signal, Boehringer light units (BLU); mean over the file's lines of this peptide [6]: 57.1 | normalised SPOT signal, Boehringer light units (BLU); mean over the file's lines of this peptide [7]: 888

IDKSKLSPRFPELK [YDR237W 35-48]
normalised SPOT signal, Boehringer light units (BLU); mean over the file's lines of this peptide [1]: 54.9 | normalised SPOT signal, Boehringer light units (BLU); mean over the file's lines of this peptide [2]: 133 | normalised SPOT signal, Boehringer light units (BLU); mean over the file's lines of this peptide [3]: 22.5 | normalised SPOT signal, Boehringer light units (BLU); mean over the file's lines of this peptide [4]: 10.4 | normalised SPOT signal, Boehringer light units (BLU); mean over the file's lines of this peptide [5]: 119 | normalised SPOT signal, Boehringer light units (BLU); mean over the file's lines of this peptide [6]: 35.5 | normalised SPOT signal, Boehringer light units (BLU); mean over the file's lines of this peptide [7]: 233

ILKNRMNPEKPYEL [YBL034C 850-863]
normalised SPOT signal, Boehringer light units (BLU); mean over the file's lines of this peptide [1]: 240 | normalised SPOT signal, Boehringer light units (BLU); mean over the file's lines of this peptide [2]: 348 | normalised SPOT signal, Boehringer light units (BLU); mean over the file's lines of this peptide [3]: 55.5 | normalised SPOT signal, Boehringer light units (BLU); mean over the file's lines of this peptide [4]: 149 | normalised SPOT signal, Boehringer light units (BLU); mean over the file's lines of this peptide [5]: 327 | normalised SPOT signal, Boehringer light units (BLU); mean over the file's lines of this peptide [6]: 100 | normalised SPOT signal, Boehringer light units (BLU); mean over the file's lines of this peptide [7]: 322

IESLREIPYGPDFD [YML105C 200-213]
normalised SPOT signal, Boehringer light units (BLU); mean over the file's lines of this peptide [1]: 14.9 | normalised SPOT signal, Boehringer light units (BLU); mean over the file's lines of this peptide [2]: 2.6 | normalised SPOT signal, Boehringer light units (BLU); mean over the file's lines of this peptide [3]: 1.9 | normalised SPOT signal, Boehringer light units (BLU); mean over the file's lines of this peptide [4]: 22 | normalised SPOT signal, Boehringer light units (BLU); mean over the file's lines of this peptide [5]: 16.4 | normalised SPOT signal, Boehringer light units (BLU); mean over the file's lines of this peptide [6]: 47.7 | normalised SPOT signal, Boehringer light units (BLU); mean over the file's lines of this peptide [7]: 116

ILEGKFEPVIPREW [YCL047C 191-204]
normalised SPOT signal, Boehringer light units (BLU); mean over the file's lines of this peptide [1]: 80 | normalised SPOT signal, Boehringer light units (BLU); mean over the file's lines of this peptide [2]: 82.5 | normalised SPOT signal, Boehringer light units (BLU); mean over the file's lines of this peptide [3]: 40.5 | normalised SPOT signal, Boehringer light units (BLU); mean over the file's lines of this peptide [4]: 71.3 | normalised SPOT signal, Boehringer light units (BLU); mean over the file's lines of this peptide [5]: 53.6 | normalised SPOT signal, Boehringer light units (BLU); mean over the file's lines of this peptide [6]: 9.5 | normalised SPOT signal, Boehringer light units (BLU); mean over the file's lines of this peptide [7]: 93.2

IGSPRHAPSRPDSI [YOL138C 1121-1134]
normalised SPOT signal, Boehringer light units (BLU); mean over the file's lines of this peptide [1]: 124 | normalised SPOT signal, Boehringer light units (BLU); mean over the file's lines of this peptide [2]: 1010 | normalised SPOT signal, Boehringer light units (BLU); mean over the file's lines of this peptide [3]: 57.9 | normalised SPOT signal, Boehringer light units (BLU); mean over the file's lines of this peptide [4]: 28.1 | normalised SPOT signal, Boehringer light units (BLU); mean over the file's lines of this peptide [5]: 182 | normalised SPOT signal, Boehringer light units (BLU); mean over the file's lines of this peptide [6]: 18.4 | normalised SPOT signal, Boehringer light units (BLU); mean over the file's lines of this peptide [7]: 193

Reference: paper PMC314469, “Protein Interaction Networks by Proteome Peptide Scanning” (PLoS Biology, 2004)
